Key:
Assay in all cases: IEDB peptide-MHC binding, purified MHC/competitive/radioactivity; filed as Kd, often an IC50 or EC50 that approximates it; ≥ and ≤ were set here for values at or beyond the usual limits of such assays
HLA-A*68:01 = molecular target: HLA-A*68:01
HLA-A*11:01 = molecular target: HLA-A*11:01
HLA-A*31:01 = molecular target: HLA-A*31:01
HLA-A*33:01 = molecular target: HLA-A*33:01
HLA-A*03:01 = molecular target: HLA-A*03:01
[1] = source organism: SARS coronavirus Tor2
[2] = source organism: Vaccinia virus WR
[3] = source organism: Dengue virus 1 Brazil/97-11/1997
[4] = source organism: Vaccinia virus LC16M8
[5] = source organism: Vaccinia virus Copenhagen
[6] = source organism: Dengue virus 3 Martinique/1243/1999
[7] = source organism: Dengue virus 4 Philippines/H241/1956
[8] = source organism: Dengue virus 2 Jamaica/1409/1983
[9] = source organism: Lymphocytic choriomeningitis virus (strain Armstrong)
[10] = source organism: Triticum aestivum

Sequence: KFTTSLSLHK
- Kd (HLA-A*68:01; [1]): 302 nM
- Kd (HLA-A*11:01; [1]): 135 nM
- Kd (HLA-A*31:01; [1]): 239 nM
- Kd (HLA-A*33:01; [1]): 8190 nM
- Kd (HLA-A*03:01; [1]): 275 nM

Sequence: KIVDHIVMY
- Kd (HLA-A*68:01; [2]): 7980 nM
- Kd (HLA-A*11:01; [2]): 92.2 nM
- Kd (HLA-A*31:01; [2]): 11800 nM
- Kd (HLA-A*33:01; [2]): ≥ 24800 nM
- Kd (HLA-A*03:01; [2]): 17.9 nM

Sequence: KLITPNYMK
- Kd (HLA-A*68:01; [2]): 2790 nM
- Kd (HLA-A*11:01; [2]): 5.08 nM
- Kd (HLA-A*31:01; [2]): 486 nM
- Kd (HLA-A*33:01; [2]): ≥ 59300 nM
- Kd (HLA-A*03:01; [2]): 10.3 nM

Sequence: KSEFNTYKR
- Kd (HLA-A*31:01; [3]): 1340 nM

Sequence: KSKNINIEVK
- Kd (HLA-A*68:01; [2]): 13300 nM
- Kd (HLA-A*11:01; [2]): 568 nM
- Kd (HLA-A*31:01; [2]): 1070 nM
- Kd (HLA-A*33:01; [2]): ≥ 70000 nM
- Kd (HLA-A*03:01; [2]): 305 nM

Sequence: KSSSIDVDKR
- Kd (HLA-A*68:01; [2]): 17 nM
- Kd (HLA-A*11:01; [2]): 550 nM
- Kd (HLA-A*31:01; [2]): 84.4 nM
- Kd (HLA-A*33:01; [2]): 8180 nM
- Kd (HLA-A*03:01; [2]): 2630 nM

Sequence: KTDFKVVKK
- Kd (HLA-A*68:01; [2]): 365 nM
- Kd (HLA-A*11:01; [2]): 60.6 nM
- Kd (HLA-A*31:01; [2]): 71.1 nM
- Kd (HLA-A*33:01; [2]): 1210 nM
- Kd (HLA-A*03:01; [2]): 14.8 nM

Sequence: LFASADNHPK
- Kd (HLA-A*68:01; [4]): 264 nM
- Kd (HLA-A*11:01; [4]): 85.9 nM
- Kd (HLA-A*31:01; [4]): 9330 nM
- Kd (HLA-A*33:01; [4]): 9860 nM
- Kd (HLA-A*03:01; [4]): 399 nM

Sequence: LSRLRYNLCK
- Kd (HLA-A*68:01; [2]): 3510 nM
- Kd (HLA-A*11:01; [2]): 715 nM
- Kd (HLA-A*31:01; [2]): 206 nM
- Kd (HLA-A*33:01; [2]): 2640 nM
- Kd (HLA-A*03:01; [2]): 92.9 nM

Sequence: LTIKDSSNK
- Kd (HLA-A*68:01; [2]): 9.14 nM
- Kd (HLA-A*11:01; [2]): 14.9 nM
- Kd (HLA-A*31:01; [2]): ≥ 34800 nM
- Kd (HLA-A*33:01; [2]): ≥ 77700 nM
- Kd (HLA-A*03:01; [2]): 827 nM

Sequence: LTILDDNLYK
- Kd (HLA-A*68:01; [5]): 19.5 nM
- Kd (HLA-A*11:01; [5]): 3.38 nM
- Kd (HLA-A*31:01; [5]): 6840 nM
- Kd (HLA-A*33:01; [5]): 17700 nM
- Kd (HLA-A*03:01; [5]): 229 nM

Sequence: LTMKAIEKDR
- Kd (HLA-A*68:01; [2]): 65.5 nM
- Kd (HLA-A*11:01; [2]): 280 nM
- Kd (HLA-A*31:01; [2]): 595 nM
- Kd (HLA-A*33:01; [2]): 6250 nM
- Kd (HLA-A*03:01; [2]): 12100 nM

Sequence: MGYWIESQK
- Kd (HLA-A*68:01; [6]): 67.2 nM
- Kd (HLA-A*03:01; [6]): 12.8 nM

Sequence: MIIKHIYEQY
- Kd (HLA-A*68:01; [2]): 140 nM
- Kd (HLA-A*11:01; [2]): 5780 nM
- Kd (HLA-A*31:01; [2]): ≥ 70000 nM
- Kd (HLA-A*33:01; [2]): ≥ 70000 nM
- Kd (HLA-A*03:01; [2]): ≥ 70100 nM

Sequence: MLAHAEETRK
- Kd (HLA-A*68:01; [1]): 157 nM
- Kd (HLA-A*11:01; [1]): 6390 nM
- Kd (HLA-A*31:01; [1]): 9410 nM
- Kd (HLA-A*33:01; [1]): ≥ 70000 nM
- Kd (HLA-A*03:01; [1]): 496 nM

Sequence: MLNILNGRKR
- Kd (HLA-A*31:01; [7]): 17.3 nM

Sequence: MSLSEQLRK
- Kd (HLA-A*68:01; [1]): 169 nM
- Kd (HLA-A*11:01; [1]): 4.01 nM
- Kd (HLA-A*31:01; [1]): 181 nM
- Kd (HLA-A*33:01; [1]): 4730 nM
- Kd (HLA-A*03:01; [1]): 8.24 nM

Sequence: MWTLMYFHRR
- Kd (HLA-A*31:01; [8]): 33.6 nM
- Kd (HLA-A*33:01; [8]): 29.8 nM

Sequence: NATDFWRLY
- Kd (HLA-A*68:01; [2]): 52.3 nM
- Kd (HLA-A*11:01; [2]): 126 nM
- Kd (HLA-A*31:01; [2]): 477 nM
- Kd (HLA-A*33:01; [2]): 526 nM
- Kd (HLA-A*03:01; [2]): 44.1 nM

Sequence: NFFTELENKK
- Kd (HLA-A*68:01; [2]): 6670 nM
- Kd (HLA-A*11:01; [2]): ≥ 32300 nM
- Kd (HLA-A*31:01; [2]): ≥ 70000 nM
- Kd (HLA-A*33:01; [2]): ≥ 32800 nM
- Kd (HLA-A*03:01; [2]): ≥ 61800 nM

Sequence: NFMVSVSDFR
- Kd (HLA-A*68:01; [2]): 6.56 nM
- Kd (HLA-A*11:01; [2]): 4030 nM
- Kd (HLA-A*31:01; [2]): 93.9 nM
- Kd (HLA-A*33:01; [2]): 33.1 nM
- Kd (HLA-A*03:01; [2]): 9960 nM

Sequence: NLPYNWKNFY
- Kd (HLA-A*68:01; [2]): 626 nM
- Kd (HLA-A*11:01; [2]): 4360 nM
- Kd (HLA-A*31:01; [2]): 1720 nM
- Kd (HLA-A*33:01; [2]): 18600 nM
- Kd (HLA-A*03:01; [2]): 1780 nM

Sequence: NSESLSLISH
- Kd (HLA-A*68:01; [9]): ≥ 29300 nM
- Kd (HLA-A*11:01; [9]): 8050 nM
- Kd (HLA-A*31:01; [9]): 16900 nM
- Kd (HLA-A*33:01; [9]): ≥ 31800 nM
- Kd (HLA-A*03:01; [9]): ≥ 23400 nM

Sequence: NTLSERISSK
- Kd (HLA-A*68:01; [2]): 9.48 nM
- Kd (HLA-A*11:01; [2]): 0.736 nM
- Kd (HLA-A*31:01; [2]): 1410 nM
- Kd (HLA-A*33:01; [2]): 404 nM
- Kd (HLA-A*03:01; [2]): 48.8 nM

Sequence: NTPLHIVCSK
- Kd (HLA-A*68:01; [2]): 10.8 nM
- Kd (HLA-A*11:01; [2]): 147 nM
- Kd (HLA-A*31:01; [2]): 233 nM
- Kd (HLA-A*33:01; [2]): 7190 nM
- Kd (HLA-A*03:01; [2]): 32.4 nM

Sequence: NTRQLKLLEY
- Kd (HLA-A*68:01; [2]): 1590 nM
- Kd (HLA-A*11:01; [2]): 152 nM
- Kd (HLA-A*31:01; [2]): 9830 nM
- Kd (HLA-A*33:01; [2]): 10800 nM
- Kd (HLA-A*03:01; [2]): 969 nM

Sequence: NVIEDITFLR
- Kd (HLA-A*68:01; [2]): 1.59 nM
- Kd (HLA-A*11:01; [2]): 230 nM
- Kd (HLA-A*31:01; [2]): 64.4 nM
- Kd (HLA-A*33:01; [2]): 12.5 nM
- Kd (HLA-A*03:01; [2]): 6720 nM

Sequence: NYSKFWYLEH
- Kd (HLA-A*68:01; [9]): ≥ 70100 nM
- Kd (HLA-A*11:01; [9]): ≥ 69700 nM
- Kd (HLA-A*31:01; [9]): 5840 nM
- Kd (HLA-A*33:01; [9]): 300 nM
- Kd (HLA-A*03:01; [9]): ≥ 70000 nM

Sequence: PISELSRLRY
- Kd (HLA-A*68:01; [2]): ≥ 44900 nM
- Kd (HLA-A*11:01; [2]): 735 nM
- Kd (HLA-A*31:01; [2]): ≥ 70000 nM
- Kd (HLA-A*33:01; [2]): 15500 nM
- Kd (HLA-A*03:01; [2]): 3270 nM

Sequence: PQVGGLTSIK
- Kd (HLA-A*68:01; [1]): ≥ 37500 nM
- Kd (HLA-A*11:01; [1]): 6370 nM
- Kd (HLA-A*31:01; [1]): ≥ 70000 nM
- Kd (HLA-A*33:01; [1]): ≥ 70000 nM
- Kd (HLA-A*03:01; [1]): ≥ 10000 nM

Sequence: QLDEKSSIK
- Kd (HLA-A*68:01; [2]): 14000 nM
- Kd (HLA-A*11:01; [2]): 510 nM
- Kd (HLA-A*31:01; [2]): 4300 nM
- Kd (HLA-A*33:01; [2]): ≥ 56800 nM
- Kd (HLA-A*03:01; [2]): 204 nM

Sequence: QLMYALEPRK
- Kd (HLA-A*68:01; [5]): 83.8 nM
- Kd (HLA-A*11:01; [5]): 85 nM
- Kd (HLA-A*31:01; [5]): 8370 nM
- Kd (HLA-A*33:01; [5]): ≥ 70000 nM
- Kd (HLA-A*03:01; [5]): 150 nM

Sequence: QQHNIVHGK
- Kd (HLA-A*68:01; [10]): 728 nM
- Kd (HLA-A*11:01; [10]): 914 nM
- Kd (HLA-A*31:01; [10]): 2370 nM
- Kd (HLA-A*33:01; [10]): ≥ 77700 nM
- Kd (HLA-A*03:01; [10]): 12500 nM

Sequence: QSADASTFLK
- Kd (HLA-A*68:01; [1]): 49.4 nM
- Kd (HLA-A*11:01; [1]): 10.2 nM
- Kd (HLA-A*31:01; [1]): 1020 nM
- Kd (HLA-A*33:01; [1]): 5290 nM
- Kd (HLA-A*03:01; [1]): 348 nM

Sequence: RFWDLVHRER
- Kd (HLA-A*31:01; [3]): ≥ 49800 nM
- Kd (HLA-A*33:01; [3]): 19.7 nM

Sequence: RIMQRGLFGK
- Kd (HLA-A*11:01; [7]): 29.5 nM
- Kd (HLA-A*31:01; [7]): 10.9 nM
- Kd (HLA-A*03:01; [7]): 5.43 nM

Sequence: STPIVVQMTK
- Kd (HLA-A*11:01; [1]): 14.2 nM

Sequence: TFHTMWHVTR
- Kd (HLA-A*31:01; [8]): 19.1 nM
- Kd (HLA-A*33:01; [8]): 7.95 nM

Sequence: TLFGPEREK
- Kd (HLA-A*03:01; [7]): 85.9 nM

Sequence: VFHTMWHVTR
- Kd (HLA-A*31:01; [6]): 4.53 nM
- Kd (HLA-A*33:01; [6]): 135 nM
